From article PMC11320570 (2024)

Columns and labels:
Assay in all cases: ELISA
[1] = target: T1, DENV-2 EDIII wild-type Fc-fusion antigen (dengue virus serotype 2 (DENV-2), …)
T1 chain: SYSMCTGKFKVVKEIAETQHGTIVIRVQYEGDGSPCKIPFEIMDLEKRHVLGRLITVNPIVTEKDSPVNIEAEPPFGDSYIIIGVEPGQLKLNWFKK

R3N_2D3 = target: R3N_2D3
R2N_1G11 = target: R2N_1G11
[2] = target: soluble DENV-2 envelope protein (D2E80) (dengue virus serotype 2 (DENV-2), …)
[3] = target: soluble E80 protein of DENV-3 (dengue virus serotype 3 (DENV-3))
[4] = target: soluble E80 protein of DENV-1 (dengue virus serotype 1 (DENV-1))

B1: 2C8 mouse antibody (antibody, V domains shown)
VH: EVKLVESGGGLVQPGGSLSLSCAASGFTFTDYYMTWVRQPPGKALEWLALIRNKASGYTTEYSASVKGRFTISRDNSQSILYLQMNALRAEDSATYYCTRAKWDGHYFDYWGQGTTLTVSS
VL: DIQMTQSPASLSVSVGETVTITCRATKNIYNNLAWYQQKQGRSPQLLVYAATNLADGVPSRFSGSGSGTQFSLRINSLQSEDFGNYYCQHFWHTPWTFGGGTKLEIK
Q: For B1, which Kd [1] is on record?
A: 0.22 nM

B2: soluble E80 protein of DENV-4 (domain or fragment)
chain: MRCVGVGNRDFVEGVSGGAWVDLVLEHGGCVTTMAQGKPTLDFELIKTTAKEVALLRTYCIEASISNITTATRCPTQGEPYLKEEQDQQYICRRDVVDRGWGNGCGLFGKGGVVTCAKFSCSGKITGNLVQIENLEYTVVVTVHNGDTHAVGNDIPNHGVTATITPRSPSVEVKLPDYGELTLDCEPRSGIDFNEMILMKMKKKTWLVHKQWFLDLPLPWAAGADTSEVHWNYKERMVTFKVPHAKRQDVTVLGSQEGAMHSALTGATEVDSGDGNHMFAGHLKCKVRMEKLRIKGMSYTMCSGKFSIDKEMAETQHGTTVVKVKYEGAGAPCKVPIEIRDVNKEKVVGRIISSTPFAEYTNSVTNIELEPPFGDSYIVIGVGDSALTLHWFRKG
Q: What does the source list for B2?
A: Kd (R3N_2D3): 0.32 nM; Kd (R2N_1G11): > 67 nM

B3: 3H5 mouse antibody (antibody, V domains shown)
VH: QVQLQQSGAEVARPGASVKLSCKASGYTFTSYWLQWVKQRPGQGLEWIGAIWPGDDDTRYAQKFQGKATMTADKSSSTAYIQLSNLASEDSAVYYCARKGGFAMDYWGQGTSVTVSS
VL: NIVMTQSPTSLAVSLGQRATISCRASESVDSFGKSFMHFYQQKPGQPPKLLIHLASNLESGVPARFTGRGSRTDFTLTIDPVEADDAATYYCQQNNEVPFTFGSGTKLEVK
Q: With B3 as the binder, how does the Kd [1] read?
A: 1.06 nM

B4: 513 engineered and humanized antibody (antibody, V domains shown)
VH: QVQLVQSGAEVKKPGASVKVSCKAGFNIKDVYMSWVRQAPEQGLEWMGRIDPENGDTKYDPKLQGRVTMTADTSTNTAYMELRSLRSDDTAVYYCARGWEGFAYWGQGTLVTVSS
VL: DIVMTQSPASLAVSLGQRATISCRASENVDKYGNSFMHWYQQKPGQPPKLLIYRASELQWGVPDRFSGSGSGTDFTLTISSLQAEDVAVYYCQRSNEVPWTFGQGTKLEIK
Q: B4 was tested. Which Kd [2] did it give?
A: 0.087 nM

Q: What about the Kd [3] of the same binder?
A: 0.46 nM

Q: What about the Kd [4] of the same binder?
A: 0.054 nM

Q: And the Kd [1]?
A: 0.066 nM

B5: 2H12 mouse antibody (antibody, V domains shown)
VH: DVQLVEPGAELVQPGASVKMSCKASGYTFSSYWINWEKQRPGKGLEWIGNIYPGSGTVNYDDKFKSKATLTIDTSSNTAYMQLSSLTSEDSAVYYCTRGGSHAMDYWGQGTSVTVSS
VL: DIVMTQSQKFMSTSVGDRVSITCKASQNVRTSVAWYQQKPGQSPKALIYLASNRHTGVPDRFTGSGSGTDFTLTISNVQSEDLADYFCLQHWTYPYTFGGGTKLEIK
Q: With B5 as the binder, how does the Kd [1] read?
A: 0.39 nM
